This passage reports switch fluorescence ratio results from the supplement of paper PMC10126150.

± gives the standard deviation of the averaged measurements.
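Note: ATP exposure 15 min at 22 °C before imaging.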

The series relates to ATP. The series is described as follows: switch fluorescence ratio, 500 uM ATP over buffer (Cy3 cluster intensity, sum of 5 cycles each) (fold (ratio)); higher = stronger signal-on switching upon ATP binding; sequences stand for … in TCGTCGGCAGCGTCAGATGTGTATAAGAGACAGTTTTTTTTTTTTTTTTTTTTTTTTT…TC. As to conditions: aptamer strand: ATP DNA aptamer (quencher-CACCTGGGGGAGTATTGCGGAGGAAGG + anchor), 100 nM annealed; ATP concentration: 500 uM. In outline: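 The fluorescence ratio divides summed target-cycle Cy3 intensity by summed buffer-cycle Cy3 intensity for each cluster and is averaged per switch-domain sequence. Cy3-labelled switching-strand clusters on a modified Illumina MiSeq flow-cell were annealed to 100 nM quencher-labelled ATP aptamer, then imaged in selection buffer and again after 15 min with 500 uM ATP at 22 °C. Five such cycles were run, with NaOH stripping and re-annealing between them, and clusters outside 100-1000 RFU were excluded.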
Take CGTTTATTG: the switch fluorescence ratio came to 0.9967 ± 0.0085.
As for TTTCCGTGAT, the switch fluorescence ratio came to 1.918 ± 0.013.
In the case of TGGGGAATTC it was 1.53 ± 0.86.
The same measure for CACGGGGTAC: 1.34 ± 0.016.
On to AAGAAGGACG, for which the switch fluorescence ratio was determined as 1 ± 0.033.
Take ATTTGATTCT: the switch fluorescence ratio is 0.984 ± 0.023.
In the case of ATAGGGAGGC it was 0.967 ± 0.035; in that of TGCGTAGGGT, 0.967 ± 0.011.
With GGTAACACCA, the switch fluorescence ratio is 1.015 ± 0.0095.
GAGGTAGCGC: the switch fluorescence ratio is 0.98 ± 0.01.
With GGGTGGGCAT, the switch fluorescence ratio turned out to be 1.03 ± 0.013.
For the sequence AAGCTAATTC, the switch fluorescence ratio worked out at 1.186 ± 0.0069.
In the case of GGGGTATTGT, the switch fluorescence ratio turned out to be 1.007 ± 0.0034.
ACGACGTTGA: the switch fluorescence ratio came to 1.07 ± 0.032.
As to TTTAATCGAG, the switch fluorescence ratio came to 1.04 ± 0.037.
In the case of GCTGGGAATA it was 0.9499 ± 0.0028; in that of AAGGCTCTTG, 0.986 ± 0.018.
Take TGGTGCGCCC: the switch fluorescence ratio worked out at 1.033 ± 0.0058.
Take GTAGTTTGAG: the switch fluorescence ratio was 0.996 ± 0.015.
Take ACGTGGGGGT: the switch fluorescence ratio stood at 1.01 ± 0.011.
In the case of GAGGTTAATA it was 1.04 ± 0.021; in that of CTGATGGGGT, 1 ± 0.013; in that of GGGTTAATGG, 0.986 ± 0.011.
In the case of GGGGACGGAT it was 1.04 ± 0.052.
Turning to TGTTTGGGCG, the switch fluorescence ratio is 1.03 ± 0.077.
In the case of TTTGATGAGT, the switch fluorescence ratio amounted to 1.01 ± 0.013.
Consider CAAAGAAAAT, for which the switch fluorescence ratio was 0.9943 ± 0.0062.
CGTTCTATGT: the switch fluorescence ratio came out at 1.01 ± 0.02.
For the sequence GATGTATTAT, the switch fluorescence ratio worked out at 1.008 ± 0.0043.
Regarding AGGGAGGTCG, the switch fluorescence ratio stood at 0.973 ± 0.035.
For TGAGGACAGT, the switch fluorescence ratio was determined as 1 ± 0.018.
In the case of ATGCACGTAT it was 1.03 ± 0.048.
As to TAGCGGGGCA, the switch fluorescence ratio is 0.996 ± 0.046.
With TGGTTGGTGC, the switch fluorescence ratio came to 1.16 ± 0.17.
On to TTTATCAGCT, for which the switch fluorescence ratio was 0.9985 ± 0.0065.
As to TCGAGGATGT, the switch fluorescence ratio was determined as 0.976 ± 0.019.
Take AGGGTGGGCT: the switch fluorescence ratio was found to be 0.996 ± 0.012.
On to TTAAATCGTT, for which the switch fluorescence ratio was determined as 1.036 ± 0.0076.
TGAGTTGATT: the switch fluorescence ratio was 1.01 ± 0.069.
For GAGGGTTTGG, the switch fluorescence ratio is 0.989 ± 0.037.
With TAATATCTTT, the switch fluorescence ratio stood at 0.995 ± 0.054.
Take TATAATAGAA: the switch fluorescence ratio was 0.983 ± 0.027.
Turning to CGGGCAGCTG, the switch fluorescence ratio stood at 1.04 ± 0.048.
For TTAGGGTGGT, the switch fluorescence ratio was determined as 0.99 ± 0.018.
Consider GTGCATGCGT, for which the switch fluorescence ratio stood at 0.998 ± 0.03.
In the case of CTGTGCCAAG it was 1.0036 ± 0.00061; in that of CGTAGAGGGG, 0.9858 ± 0.0073.
In the case of CCCGGGAAAT, the switch fluorescence ratio is 1.04 ± 0.059.
The same measure for TCCCGTATCC: 1.07 ± 0.036; for GGAATGTTGC: 0.9733 ± 0.0039; for CAGGGATTAA: 0.9842 ± 0.0036.
Take TCCTCAGGAT: the switch fluorescence ratio turned out to be 1.02 ± 0.018.
In the case of TCTTTTGGTA it was 0.9895 ± 0.0052; in that of AGAATTCCCT, 1.011 ± 0.01; in that of CGGATGAATG, 0.999 ± 0.029.
As to TAAAATGAGA, the switch fluorescence ratio was determined as 0.98 ± 0.031.
For AGCTTGGACC, the switch fluorescence ratio stood at 1.009 ± 0.0084.
Consider GGGAAAAATT, for which the switch fluorescence ratio is 1.013 ± 0.006.
On to AAGGATAGGA, for which the switch fluorescence ratio was found to be 1 ± 0.014.
On to TTTCCAAGGT, for which the switch fluorescence ratio was 1.12 ± 0.11.
For the sequence GTCTGTGGGA, the switch fluorescence ratio was determined as 0.9998 ± 0.0091.
As to CTGGGATATA, the switch fluorescence ratio amounted to 1 ± 0.04.
In the case of CGGGGAATAG it was 1.16 ± 0.094.
TTTTTTTAGG: the switch fluorescence ratio was determined as 0.982 ± 0.03.
Take ACATACAGGG: the switch fluorescence ratio was found to be 1.31 ± 0.038.
The same measure for TTCGTTTGAC: 1.03 ± 0.1; for GGTATATCTT: 1.01 ± 0.076.
With TTCGTATATA, the switch fluorescence ratio was found to be 1.01 ± 0.018.
The same measure for GTTGTGCAAT: 1.16 ± 0.0012.
The same measure for CGGTTGCGTT: 0.987 ± 0.035; for ACTTTAGCAG: 1.034 ± 0.0063; for ATGGGTCTCG: 0.966 ± 0.019.
Take GGTTATTGTG: the switch fluorescence ratio was found to be 0.968 ± 0.027.
On to GCTGGGCACG, for which the switch fluorescence ratio came out at 0.954 ± 0.015.
On to CACCGGGAAC, for which the switch fluorescence ratio was determined as 1.56 ± 0.037.
For AGGTCGGCTT, the switch fluorescence ratio came to 1.006 ± 0.0024.
For the sequence CCTTATCAGG, the switch fluorescence ratio stood at 1.04 ± 0.02.
Take TTTCCTGACG: the switch fluorescence ratio was found to be 1.06 ± 0.028.
Take GGCTTAAGAT: the switch fluorescence ratio is 0.998 ± 0.017.
The same measure for TTTAAAAAAT: 1.02 ± 0.035; for TTCGGTTAGT: 1 ± 0.012.
In the case of TTCAGGTGCC, the switch fluorescence ratio stood at 1.46 ± 0.04.
For the sequence TAGTGTATTA, the switch fluorescence ratio worked out at 1.01 ± 0.018.
As to TTAGTAAGGC, the switch fluorescence ratio was 1.22 ± 0.2.
For the sequence TAATCCGGTC, the switch fluorescence ratio was determined as 1.04 ± 0.094.
Consider GAGGGGGCGT, for which the switch fluorescence ratio stood at 1.01 ± 0.04.
Regarding ATAACAGGTA, the switch fluorescence ratio is 1.009 ± 0.005.
Take GAGGTGGCAG: the switch fluorescence ratio stood at 1.0097 ± 0.00096.
Take CGCGCAGGGG: the switch fluorescence ratio was 1.69 ± 0.076.
In the case of TCGGAGTGCG, the switch fluorescence ratio was determined as 1.006 ± 0.0062.
ATTAAGGTGC: the switch fluorescence ratio is 1.31 ± 0.075.
AAGTTAGGGG: the switch fluorescence ratio was determined as 0.9756 ± 0.0084.
As for TCGGTCGATT, the switch fluorescence ratio is 1.019 ± 0.0031.
As to TCAGGGGAAC, the switch fluorescence ratio was determined as 1.06 ± 0.07.
For the sequence GCCAATGATC, the switch fluorescence ratio was 1.01 ± 0.073.
On to AATCATGGAG, for which the switch fluorescence ratio was 0.9891 ± 0.004.
In the case of TTTTAGGGTG it was 1.07 ± 0.072.
The same measure for TTTGGCCGTT: 1.2 ± 0.26; for TGGTAGGGTT: 0.969 ± 0.028.
As for AACAACTTTT, the switch fluorescence ratio turned out to be 1.04 ± 0.042.
As for CGTAGCGTTT, the switch fluorescence ratio was determined as 0.998 ± 0.04.
For AGTATTGGTT, the switch fluorescence ratio was 0.986 ± 0.021.
As for GCGAAAGGAA, the switch fluorescence ratio amounted to 1.12 ± 0.14.
Turning to ATTAGGAAAG, the switch fluorescence ratio came to 0.998 ± 0.028.
For CGTTGCATTG, the switch fluorescence ratio turned out to be 1.03 ± 0.017.
In the case of GTCTTTGTTA it was 1.01 ± 0.022; in that of GGAAAAGAGA, 1.01 ± 0.017; in that of GTAACAGGCG, 0.905 ± 0.021.
For the sequence TGGGTGGGCT, the switch fluorescence ratio is 0.975 ± 0.011.
With TTGAATGGGG, the switch fluorescence ratio came to 1.05 ± 0.043.
For CAGGGGCGGG, the switch fluorescence ratio was 0.966 ± 0.11.
Consider CAGTTCTCTA, for which the switch fluorescence ratio came to 0.981 ± 0.0068.
On to AATAATGTTC, for which the switch fluorescence ratio came to 0.9805 ± 0.0071.
In the case of CGCTGTGGGC, the switch fluorescence ratio is 0.988 ± 0.044.
Regarding TGGAGAGGGG, the switch fluorescence ratio is 0.996 ± 0.05.
For AAGAGTTAGG, the switch fluorescence ratio stood at 0.966 ± 0.031.
On to TATGGGCCGG, for which the switch fluorescence ratio came out at 1.07 ± 0.018.
For GGCGGAGCTA, the switch fluorescence ratio came to 1.03 ± 0.049.
As to TTAGTAGATT, the switch fluorescence ratio was 0.991 ± 0.036.
On to AGTGCGCATG, for which the switch fluorescence ratio amounted to 1.01 ± 0.032.
